Measured values as given in patent US20120316071A1 (published 2012).
Each block holds one binder with its values, some of them ahead of it.

How the values were obtained:
[1] = target: T1, rHuman P-Cadherin/Fc Chimera, CF (R&D Systems Cat#861-PC) (human, UniProt P22223 108-654); assay: MSD multispot ECL, antigen spotted on plate, Fab in solution; blank spot of this row 254
T1 construct: Bought recombinant protein; Fc part of the bought chimera not given

[2] = target: T2, Recombinant Human DLL4 (R&D Systems Cat#1506-D4/CF) (human, UniProt Q9NR61 27-524); assay: as above
T2 construct: Bought recombinant protein; also called delta-like protein 4; rHuman DLL4

[3] = target: T3, rHuman ErbB2/Fc Chimera, CF (R&D Systems Cat#1129-ER) (human, UniProt P04626 23-652); assay: as above
T3 construct: Bought recombinant protein; Fc part of the bought chimera not given

[4] = target: T4, rHuman IGF-1 sR (insulin-like growth factor-1 soluble receptor), CF (R&D Systems Cat#391-GR) (human, UniProt P08069 31-932); assay: as above
T4 construct: Bought recombinant soluble receptor; The column head prints only 'IGF-1'

[5] = target: T5, rHuman HGF R/c-MET/Fc Chimera, CF (R&D Systems Cat#358-MT/CF) (human, UniProt P08581 25-932); assay: as above
T5 construct: Bought recombinant protein; also called HGF R/Fc; Fc part of the bought chimera not given

[6] = target: T6, rHuman EGF R/Fc Chimera, CF (R&D Systems Cat#344-ER) (human, UniProt P00533 25-645); assay: as above
T6 construct: Bought recombinant protein; Fc part of the bought chimera not given

[7] = target: T1, rHuman P-Cadherin/Fc Chimera, CF (R&D …); assay: MSD multispot ECL, antigen spotted on plate, Fab in solution; blank spot of this row 338
[8] = target: T2, Recombinant Human DLL4 (R&D Systems …); assay: as above
[9] = target: T3, rHuman ErbB2/Fc Chimera, CF (R&D …); assay: as above
[10] = target: T4, rHuman IGF-1 sR (insulin-like growth …); assay: as above
[11] = target: T5, rHuman HGF R/c-MET/Fc Chimera, CF (R&D …); assay: as above
[12] = target: T6, rHuman EGF R/Fc Chimera, CF (R&D …); assay: as above
[13] = target: T1, rHuman P-Cadherin/Fc Chimera, CF (R&D …); assay: MSD multispot ECL, antigen spotted on plate, Fab in solution; blank spot of this row 184
[14] = target: T2, Recombinant Human DLL4 (R&D Systems …); assay: as above
[15] = target: T3, rHuman ErbB2/Fc Chimera, CF (R&D …); assay: as above
[16] = target: T4, rHuman IGF-1 sR (insulin-like growth …); assay: as above
[17] = target: T5, rHuman HGF R/c-MET/Fc Chimera, CF (R&D …); assay: as above
[18] = target: T6, rHuman EGF R/Fc Chimera, CF (R&D …); assay: as above
[19] = target: T1, rHuman P-Cadherin/Fc Chimera, CF (R&D …); assay: MSD multispot ECL, antigen spotted on plate, Fab in solution; blank spot of this row 407
[20] = target: T2, Recombinant Human DLL4 (R&D Systems …); assay: as above
[21] = target: T3, rHuman ErbB2/Fc Chimera, CF (R&D …); assay: as above
[22] = target: T4, rHuman IGF-1 sR (insulin-like growth …); assay: as above
[23] = target: T5, rHuman HGF R/c-MET/Fc Chimera, CF (R&D …); assay: as above
[24] = target: T6, rHuman EGF R/Fc Chimera, CF (R&D …); assay: as above
[25] = target: T7, Recombinant Human DLL4 (delta-like protein 4) (human, UniProt Q9NR61 27-524); assay: SPR, Fab on recombinant human DLL4
T7 construct: Bought recombinant human DLL4 (R&D Systems Cat#1506-D4/CF); also called rHuman DLL4; Delta-like ligand 4

[26] = target: T7, Recombinant Human DLL4 (delta-like …); assay: SPR, Fab on recombinant human DLL4; two-site binding, this site 89% by the footnote
[27] = target: T7, Recombinant Human DLL4 (delta-like …); assay: SPR, Fab on recombinant human DLL4; two-site binding, this site 10% by the footnote
[28] = target: T8, rHuman HGF R/c-MET/Fc Chimera, CF (R&D Systems Cat#358-MT/CF) (human, UniProt P08581 25-932); assay: MSD Multispot ECL, antigen spotted on plate, Fab in solution; blank spot of the row 373
T8 construct: Bought recombinant Fc chimera; also called HGF R/Fc; hepatocyte growth factor receptor; Fc part of the bought chimera not given

[29] = target: T9, rHuman EGF R/Fc Chimera, CF (R&D Systems Cat#344-ER) (human, UniProt P00533 25-645); assay: as above
T9 construct: Bought recombinant Fc chimera; also called epidermal growth factor receptor; Fc part of the bought chimera not given

[30] = target: T10, rHuman CD44/Fc Chimera, CF (R&D Systems Cat#3660-CD) (human, UniProt P16070 21-220); assay: as above
T10 construct: Bought recombinant Fc chimera; Fc part of the bought chimera not given

[31] = target: T11, rHuman P-Cadherin/Fc Chimera, CF (R&D Systems Cat#861-PC) (human, UniProt P22223 108-654); assay: as above
T11 construct: Bought recombinant Fc chimera; Fc part of the bought chimera not given

[32] = target: T12, rHuman Notch-1/Fc Chimera, CF (R&D Systems Cat#3647-TK) (human, UniProt P46531 19-526); assay: as above
T12 construct: Bought recombinant Fc chimera; Fc part of the bought chimera not given

[33] = target: T13, rHuman Erythropoietin R/Fc Chimera, CF (R&D Systems Cat#963-ER) (human, UniProt P19235 25-250); assay: as above
T13 construct: Bought recombinant Fc chimera; also called EPO R; EPO R/Fc; Fc part of the bought chimera not given
T13 sequence (looked up): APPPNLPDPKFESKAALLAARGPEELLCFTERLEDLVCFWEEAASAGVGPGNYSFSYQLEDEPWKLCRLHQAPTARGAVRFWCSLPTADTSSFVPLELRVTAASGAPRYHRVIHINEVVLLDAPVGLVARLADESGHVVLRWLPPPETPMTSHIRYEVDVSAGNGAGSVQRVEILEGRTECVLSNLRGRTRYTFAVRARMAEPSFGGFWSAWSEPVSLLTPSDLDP

[34] = target: T14, Recombinant Human DLL4 (R&D Systems Cat#1506-D4/CF) (human, UniProt Q9NR61 27-524); assay: as above
T14 construct: Bought recombinant protein; also called delta-like protein 4; Delta-like 4

ECL signal [1]: 138 | ECL signal [2]: 148000 | ECL signal [3]: 351 | ECL signal [4]: 306 | ECL signal [5]: 176 | ECL signal [6]: 209 | ECL signal [7]: 399 | ECL signal [8]: 149000 | ECL signal [9]: 379 | ECL signal [10]: 468 | ECL signal [11]: 332 | ECL signal [12]: 425 | ECL signal [13]: 240 | ECL signal [14]: 132000 | ECL signal [15]: 322 | ECL signal [16]: 173 | ECL signal [17]: 263 | ECL signal [18]: 409 | ECL signal [19]: 277 | ECL signal [20]: 126000 | ECL signal [21]: 292 | ECL signal [22]: 357 | ECL signal [23]: 237 | ECL signal [24]: 329
B1: Fab VH1-46_IGHD6-6*01_IGHJ1*01 S102A/S103P/S104F/H111F (H:APFF) & L6_IGKJ1*01 (Fab, V domains shown)
VH: QVQLVQSGAEVKKPGASVKVSCKASGYTFTSYYMHWVRQAPGQGLEWMGIINPSGGSTSYAQKFQGRVTMTRDTSTSTVYMELSSLRSEDTAVYYCAREEYAPFSAEYFQFWGQGTLVTVSS
VL: not shown
notes: Fab expressed in E. coli from plasmid A (CH1, His6 and Flag tags) and plasmid C (kappa CL); also called wildtype (light chain); H:APFF & L:wt

koff [25]: 0.0689 s⁻¹ | kon [25]: 444000 M⁻¹ s⁻¹ | Kd [26]: 155 nM | Kd [27]: 14 nM
B2: Fab VH1-46_IGHD6-6*01_IGHJ1*01 S102A/S103P/S104F/H111F (APFF) & L6_IGKJ1*01 S28N/S30D/S31H (NDH) (Fab, V domains shown)
VH: B1 VH
VL: EIVLTQSPATLSLSPGERATLSCRASQNVDHYLAWYQQKPGQAPRLLIYDASNRATGIPARFSGSGSGTDFTLTISSLEPEDFAVYYCQQRSNWPPWTFGQGTKVEIKR
notes: Fab with CH1 (Plasmid A, His6 and Flag tags) and kappa CL (Plasmid C); Some paragraphs print S28D/S30N/S31H for the same NDH chain; also called H:APFF & L:NDH; APFF-NDH

ECL signal [28]: 803 | ECL signal [29]: 757 | ECL signal [30]: 547 | ECL signal [31]: 212 | ECL signal [32]: 493 | ECL signal [33]: 551 | ECL signal [34]: 45500
B3: Fab VH5-51_IGHD5-18*01>3_IGHJ4*01 G100K/G104T G24A & V3-4_IGLJ1*01 (Fab, V domains shown)
VH: EVQLVQSGAEVKKPGESLKISCKASGYSFTSYWIGWVRQMPGKGLEWMGIIYPGDSDTRYSPSFQGQVTISADKSISTAYLQWSSLKASDTAMYYCARRKYSYTYDYFDYWGQGTLVTVSS
VL: QTVVTQEPSFSVSPGGTVTLTCGLSSGSVSTSYYPSWYQQTPGQAPRTLIYSTNTRSSGVPDRFSGSILGNKAALTITGAQADDESDYYCVLYMGSGISYVFGTGTKVTVL
notes: Fab made in E. coli; VH cloned into Plasmid A (CH1, His6 and Flag tags), lambda VL into Plasmid E (lambda CL); also called KT G24A
